Data taken from the DeepSol protein solubility set.

Assay: soluble on expression in E. coli; label from the status in PepcDB or PDB records

## MLIILTGLPSVGKSTFSKAFSKKMAEKNIDNIILGTDLIRESFPVWKESYEEFIRDSNNYLIKEALENKFSVIVDDTNYYNSKRRDLMNIAKECDTNYVTIYLKAPLNLLLKRNIERGQKIPNEVIKNMYEKFDTPGTKYAWDLPDITVDTTEKIDYNEILNEILEINENKNLKIEEDKIPKSEPVESDLVKIDSLTRNIVGNLIKTGKIDKKDIKLLSEIRKSFLKDCKKIESEKLDFEKIEKDFLDYLNKNLK
  soluble on expression in E. coli: not soluble

## MSEEDKAKKLENLLKLLQLNNDDTSKFTQEQKKAMKDHKFWRTQPVKDFDEKVVEEGPIDKPKTPEDISDKPLPLLSSFEWCSIDVDNKKQLEDVFVLLNENYVEDRDAGFRFNYTKEFFNWALKSPGWKKDWHIGVRVKETQKLVAFISAIPVTLGVRGKQVPSVEINFLCVHKQLRSKRLTPVLIKEITRRVNKCDIWHALYTAGIVLPAPVSTCRYTHRPLNWKKLYEVDFTGLPDGHTEEDMIAENALPAKTKTAGLRKLKKEDIDQVFELFKRYQSRFELIQIFTKEEFEHNFIGEESLPLDKQVIFSYVVEQPDGKITDFFSFYSLPFTILNNTKYKDLGIGYLYYYATDADFQFKDRFDPKATKALKTRLCELIYDACILAKNANMDVFNALTSQDNTLFLDDLKFGPGDGFLNFYLFNYRAKPITGGLNPDNSNDIKRRSNVGVVML
  soluble on expression in E. coli: soluble

## MVKSMIAVISDIHSNLEALNAVLNDIKNRGIKKIFCLGDIVGYGANPNECVELIRDLNCLSVVGNHDYGVLGKESLDYFNKYGAIAILWTKKVIKNENLKFLDSLPLIIEENIKGKKVIFSHANPKHPEIWEYLFPDYVDDVFNYGDLIFVGHSHIPFVNSEEGNLLLHEGKIYLDEDKKYLINPGSVGQPRDGINKASYCIFDEKDFKIEIVRVEYDIKKAYEKIVKNRLPEWLGERLFLGR
  soluble on expression in E. coli: soluble

## SLKWDNSYSVHNAKIDEQHKKLFKLAAKVEVVSDRSVSKNEVKELLAEFFNYMKDHFNDEEKYMQLIGYPNLEEHRKIHKEIIQTMINLIKDIKSTNDLKEKLYIVAKKWLLEHILYEDMKVEKWRSSSLSTDDGGDVS
  soluble on expression in E. coli: soluble

## MGSDKIHHHHHHMKNTTLSSRKHRSLETKKKLLHSGYIVFINNGFQKTTITQIIKHAETGYGTAYVYFKNKDDLLTVLMEDVMNQFYDIAERSFSPQTKEEARNMIQNQVRAFLQLAEKERAILQVVEEAIGLSKEIRQKWDEIRERFINSITQDITYSQENGLAHPELNKETVARAWFAMNEIFLWTIVKNDKKLELEEIVHTLTEMYTTGLYK
  soluble on expression in E. coli: not soluble

## QRHADLIAARAGRPVTITAVCARDRSKNRDADLSGYAWETDAVALAQRADIDVFVEVMGGSEGAARASTEAALAAGKDVVTANKALLAHHGQALAEMAEAAGLAIRFEAAVAGGIPVIKALTEGLAGNQMRRVMGVMNGTCNYILTR
  soluble on expression in E. coli: not soluble

## TEKARDLFDKLMTQIQLDDTAKEHPLIQNGRIDKVIVHQQSRLWEFHLSFDELMPVMLYQTFMQQLELAFQQIAQVSVQITTNQTTFTEEQLTDYWQLALLNSQCNTPLVQKVLKTQTPQFEDRKIILPVDNEAVIPYLKQQYLPIIEELYFSYGF
  soluble on expression in E. coli: not soluble

## MSPLSGSLAPLNMKGLVKFQDVSFAYPNHPNVQVLQGLTFTLYPGKVTALVGPNGSGKSTVAALLQNLYQPTGGKVLLDGEPLVQYDHHYLHTQVAAVGQEPLLFGRSFRENIAYGLTRTPTMEEITAVAMESGAHDFISGFPQGYDTEVGETGNQLSGGQRQAVALARALIRKPRLLILDQATSALDAGNQLRVQRLLYESPEWASRTVLLITHQLSLAERAHHILFLKEGSVCEQGTHLQLMERGGCYRSMVEALAAPSDAAAHHHHHH
  soluble on expression in E. coli: soluble

## MKGMSKMPQFNLRWPGGGPQFNLRWPREVLDLVRKVAEENGRSVNSEIYQRVMESFKKEGRIGGTGGSGGGREVLDLVRKVAEENGRSVNSEIYQRVMESFKKEGRIGAHHHHHHKNQHE
  soluble on expression in E. coli: soluble

## SPSETLWEIAKAEVEKRRSHGSEGDGAEIGEKSVFFIGSKNGGKTTIILRCLDRDESAKPTLALEYTYGRKTKGHNTPKDIAHFWELGGGTSLLDLISIPITVDTLRTFSIVLVLDLSKPNDLWSTMENLLQATKSHVDKVIMKLGKTSSKASAEMRQRMWSVVQKDHPDRELIDPFPIPLVIIGSKYDIFQDFDPEKRKVICKTLRFVAHYYGASLMFTSKSEALLLKIRGVINQLAFGIDKSKSICVDQNKPLFITAGLDSLCQIGSPPVPDSDIGKLQAHSPMELWKKVYDKLFPPKSTGTLKAVQDPARDPQYAESEVDEMRVQKDQELEHYKRSSSKTWKQIELDS
  soluble on expression in E. coli: soluble
